This note sets out measurements from publication PMC6290062, “Characterization of a Novel, Cold-Adapted, and Thermostable Laccase-Like Enzyme With High Tolerance for Organic Solvents and Salt and Potent Dye Decolorization Ability, Derived From a Marine Metagenomic Library” (Frontiers in Microbiology, 2018).

The Km is the substrate concentration at which the rate is half of its maximum. Usually kcat stands for the maximal rate divided by the concentration of active sites. The kcat/Km is the second-order rate constant that governs catalysis at low substrate concentration.

Common to all, as to experiment: purified protein
Common to all, as to conditions: 0.04 M Britton-Robinson buffer, pH 7.0, 60°C

In one series the test system is COc1ccccc1O. It counts as biochemical, uncultured bacterium.
In series [1] the test system is COc1cc(C=NN=Cc2cc(OC)c(O)c(OC)c2)cc(OC)c1O.
In another series the test system is Oc1ccccc1O.

Take Lac1326 (uncultured bacterium): in the series on COc1ccccc1O, the Km is 4900 µM, the kcat worked out at 1.34 s⁻¹ and the specificity constant (kcat/Km) was 270 M⁻¹ s⁻¹. Also, in series [1], the Km was determined as 831 µM, the kcat amounted to 24.1 s⁻¹ and the kcat/Km turned out to be 29000 M⁻¹ s⁻¹. Also, in the series on Oc1ccccc1O, the Km was determined as 507 µM and the kcat/Km was 28000 M⁻¹ s⁻¹.
